The values that follow are results of earlier work, collected in publication PMC8065807.

In this series the target is EGFR (Homo sapiens) (UniProt P00533).

As to GE11, the dissociation constant Kd is 0.022 µM.

As a reminder, the Kd is the concentration at which binding is half-saturated.
